# Data taken from publication PMC12205875, “CRY1–GAIP1 complex mediates blue light to hinder the repression of PIF5 on AGL5 to promote carotenoid biosynthesis in mango fruit”.
# T1: MiGAIP1 (DELLA) (Mangifera indica, UniProt UPI001CFB1029 1-553)
# T1 sequence: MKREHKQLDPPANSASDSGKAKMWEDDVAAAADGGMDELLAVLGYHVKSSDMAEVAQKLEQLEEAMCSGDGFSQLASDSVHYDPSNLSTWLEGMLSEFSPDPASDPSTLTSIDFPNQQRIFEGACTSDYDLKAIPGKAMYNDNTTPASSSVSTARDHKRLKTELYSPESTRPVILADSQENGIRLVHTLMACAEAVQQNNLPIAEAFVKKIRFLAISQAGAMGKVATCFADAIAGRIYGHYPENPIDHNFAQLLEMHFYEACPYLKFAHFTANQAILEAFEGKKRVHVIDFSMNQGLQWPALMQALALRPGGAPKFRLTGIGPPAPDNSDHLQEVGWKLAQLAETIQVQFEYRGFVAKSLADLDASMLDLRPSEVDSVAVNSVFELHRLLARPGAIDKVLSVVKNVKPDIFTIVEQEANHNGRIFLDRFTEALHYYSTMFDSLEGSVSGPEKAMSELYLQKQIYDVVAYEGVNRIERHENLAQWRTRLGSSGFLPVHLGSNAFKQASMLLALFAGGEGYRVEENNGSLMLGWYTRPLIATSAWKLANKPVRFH
# T2: MiPIF5 (Mangifera indica, UniProt UPI001CFAADE4 1-539)
# T2 sequence: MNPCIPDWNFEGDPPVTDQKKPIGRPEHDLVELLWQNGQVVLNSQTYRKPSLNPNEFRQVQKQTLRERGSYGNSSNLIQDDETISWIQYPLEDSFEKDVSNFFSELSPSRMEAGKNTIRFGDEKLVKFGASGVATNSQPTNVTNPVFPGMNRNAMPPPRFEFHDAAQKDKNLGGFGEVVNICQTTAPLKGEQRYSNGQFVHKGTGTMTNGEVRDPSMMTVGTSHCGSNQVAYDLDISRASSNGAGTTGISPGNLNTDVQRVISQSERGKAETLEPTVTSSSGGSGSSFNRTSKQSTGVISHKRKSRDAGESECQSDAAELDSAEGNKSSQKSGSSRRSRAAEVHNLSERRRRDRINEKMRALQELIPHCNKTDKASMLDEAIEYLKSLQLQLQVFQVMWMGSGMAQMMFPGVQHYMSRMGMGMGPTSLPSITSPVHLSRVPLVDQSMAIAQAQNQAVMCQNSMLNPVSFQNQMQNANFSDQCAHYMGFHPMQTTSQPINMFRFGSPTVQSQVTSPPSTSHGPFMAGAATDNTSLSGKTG
# Legend:
# MiGAIP1 (DELLA) = molecular target: T1, MiGAIP1 (DELLA); experiment: EMSA; LightShift Chemiluminescent EMSA kit (Thermo) per manufacturer; buffer, salt, pH and temperature not stated; settings: protein: recombinant; tags: GST (pGEX4T); label: 3' biotin; blunt
# MiPIF5 = molecular target: T2, MiPIF5; experiment: as above; settings: protein: recombinant; tags: GST (pGEX4T); chain copies: 2; label: 3' biotin; blunt
binder,measurement,setting,value
ProMiAGL5-Probe (MiGAIP1) (dsDNA) DNA 1: TTTCAACAATCAAGAAATGAGAAAGGAAAGAAGAAAAAAGAAAGAAAAAAAAAAAAAGTGTCT DNA 2: AGACACTTTTTTTTTTTTTCTTTCTTTTTTCTTCTTTCCTTTCTCATTTCTTGATTGTTGAAA,binding result,MiGAIP1 (DELLA),binds
ProMiAGL5-Probe (MiPIF5) (dsDNA) DNA 1: GAGCATCACATGGGAGTCTATTTTCACTTTGTAATTTGAAAAGGAAAGAGATATATAC DNA 2: GTATATATCTCTTTCCTTTTCAAATTACAAAGTGAAAATAGACTCCCATGTGATGCTC,binding result,MiPIF5,binds
